Series [1] deals with MBP-CLR ECD-H6:RAMP2 ECD-H6 complex (recombinant AM receptor ECD complex) (human, UniProt Q16602 29-144; O60895 36-140). Description: AlphaScreen or HTRF. For orientation: Alpha assays give light when donor and acceptor beads are brought close together.
The series “SEC” concerns the molecule itself. Nature of the series: SEC. On the technique in general: SEC sorts molecules by how far they enter the pores of the column.

*: point of attachment. Biotin = O=C1N[C@H]2[C@H](CS[C@H]2CCCCC(=O)*)N1

The record followed here is article PMC3568255 (Protein expression and purification, 2012).

MBP-CLR ECD-H6:RAMP2 ECD-H6 complex (recombinant AM receptor ECD complex), sequence (Q16602 29-144, one chain of several): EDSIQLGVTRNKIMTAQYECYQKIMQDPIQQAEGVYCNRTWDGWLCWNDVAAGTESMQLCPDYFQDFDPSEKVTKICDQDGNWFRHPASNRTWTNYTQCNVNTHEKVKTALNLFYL

B1: B-AM(19–52)NH2[C21A] (peptide)
peptide: Biotin-GTATVQKLAHQIYQFTDKDKDNVAPRSKISPQGY-NH2
SMILES: CC[C@H](C)[C@H](NC(=O)[C@H](CCC(N)=O)NC(=O)[C@H](Cc1c[nH]cn1)NC(=O)[C@H](C)NC(=O)[C@H](CC(C)C)NC(=O)[C@H](CCCCN)NC(=O)[C@H](CCC(N)=O)NC(=O)[C@@H](NC(=O)[C@@H](NC(=O)[C@H](C)NC(=O)[C@@H](NC(=O)CNC(=O)CCCC[C@@H]1SC[C@@H]2NC(=O)N[C@@H]21)[C@@H](C)O)[C@@H](C)O)C(C)C)C(=O)N[C@@H](Cc1ccc(O)cc1)C(=O)N[C@@H](CCC(N)=O)C(=O)N[C@@H](Cc1ccccc1)C(=O)N[C@H](C(=O)N[C@@H](CC(=O)O)C(=O)N[C@@H](CCCCN)C(=O)N[C@@H](CC(=O)O)C(=O)N[C@@H](CCCCN)C(=O)N[C@@H](CC(=O)O)C(=O)N[C@@H](CC(N)=O)C(=O)N[C@H](C(=O)N[C@@H](C)C(=O)N1CCC[C@H]1C(=O)N[C@@H](CCCNC(=N)N)C(=O)N[C@@H](CO)C(=O)N[C@@H](CCCCN)C(=O)N[C@H](C(=O)N[C@@H](CO)C(=O)N1CCC[C@H]1C(=O)N[C@@H](CCC(N)=O)C(=O)NCC(=O)N[C@@H](Cc1ccc(O)cc1)C(N)=O)[C@@H](C)CC)C(C)C)[C@@H](C)O
Turning to B1, in series [1], the binding result was “binds”.

B2: RAMP2 ECD-H6 (RAMP2.36-140-H6), isolated extracellular domain of receptor activity modifying protein 2 (domain or fragment, human, UniProt O60895 36-140, looked up)
chain: NPHEALAQPLPTTGTPGSEGGTVKNYETAVQFCWNHYKDQMDPIEKDWCDWAMISRPYSTLRDCLEHFAELFDLGFPNPLAERIIFETHQIHFANCSLVQPTFSD
For B2, the “stoichiometry N” value in “SEC” is 3.

As a reminder, the stoichiometry N is the number of molecules, sites or subunits per partner or assembly.
